{"source": "paper PMC6879014", "about": "“Biophysical screening methods for extracellular domain peptide receptors, application to natriuretic peptide receptor C ligands” (Chemical Biology & Drug Design, 2018)", "molecules": {"B1": {"name": "C-type natriuretic peptide (ligand)", "chain": "GLSKGCFGLKLDRIGSMSGLGC", "modifications": "disulfide 6-22 (inferred)"}, "B2": {"name": "5-carboxyfluorescein N-terminus labelled GLSKG[CFGRSLDRIGSLSGLGC]NS (Flu-P19) (peptide)", "peptide": "5FAM-GLSKGCFGRSLDRIGSLSGLGCNS", "modifications": "not fully specified (bridges); cysteine pairing not given here", "notes": "P19, a peptide identified by phage display (Deschênes et al., cited); also called Flu-P19 probe; source: synthetic peptide, bought: Peptide Protein Research Ltd, UK"}}, "key": {"[1]": {"target": "T1, Human full‐length (FL) NPR‐C (27–541)‐10His‐Flag (Homo sapiens, UniProt P17342)", "T1 construct": "Human full‐length (FL) NPR‐C (27–541)‐10His‐Flag; 10His (C); Flag (C); purchased Peak Proteins, UK", "T1 sequence (P17342 27-541)": "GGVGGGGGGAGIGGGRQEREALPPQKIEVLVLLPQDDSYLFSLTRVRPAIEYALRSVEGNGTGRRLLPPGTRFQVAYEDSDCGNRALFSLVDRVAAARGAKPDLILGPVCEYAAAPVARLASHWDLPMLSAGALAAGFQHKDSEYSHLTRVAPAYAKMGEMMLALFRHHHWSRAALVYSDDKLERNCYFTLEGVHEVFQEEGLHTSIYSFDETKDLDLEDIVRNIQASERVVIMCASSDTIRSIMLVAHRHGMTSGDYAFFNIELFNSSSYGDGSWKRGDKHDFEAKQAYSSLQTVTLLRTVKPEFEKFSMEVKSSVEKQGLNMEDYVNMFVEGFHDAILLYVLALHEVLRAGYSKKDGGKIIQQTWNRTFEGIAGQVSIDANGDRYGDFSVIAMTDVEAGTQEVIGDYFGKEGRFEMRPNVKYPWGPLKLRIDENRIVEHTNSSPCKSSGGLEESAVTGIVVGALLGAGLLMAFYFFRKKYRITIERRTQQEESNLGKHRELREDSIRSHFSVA", "assay": "Surface plasmon resonance, immobilized full‐length NPR‐C", "type": "binding", "settings": "SPR, experimentally observed R max as percentage of theoretical R max (quality control), each table line a separate run"}, "[2]": {"target": "T2, extracellular domain (ECD) NPR‐C (27–481)‐6His (Homo sapiens, UniProt P17342)", "T2 construct": "extracellular domain (ECD) NPR‐C (27–481)‐6His; 6His (C); purchased Peak Proteins, UK", "T2 sequence (P17342 27-481)": "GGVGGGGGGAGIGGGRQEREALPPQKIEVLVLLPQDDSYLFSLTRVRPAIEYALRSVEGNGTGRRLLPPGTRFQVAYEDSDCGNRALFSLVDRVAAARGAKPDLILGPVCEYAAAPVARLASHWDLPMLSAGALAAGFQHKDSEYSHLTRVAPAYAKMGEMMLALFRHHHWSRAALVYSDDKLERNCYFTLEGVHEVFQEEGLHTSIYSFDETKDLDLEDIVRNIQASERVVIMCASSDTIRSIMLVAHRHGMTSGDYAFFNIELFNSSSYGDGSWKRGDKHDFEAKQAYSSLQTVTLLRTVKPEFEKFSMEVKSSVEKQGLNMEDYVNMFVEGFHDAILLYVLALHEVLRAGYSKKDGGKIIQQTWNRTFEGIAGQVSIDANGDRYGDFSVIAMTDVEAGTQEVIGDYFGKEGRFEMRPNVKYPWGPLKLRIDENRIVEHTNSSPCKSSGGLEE", "assay": "Surface plasmon resonance, immobilized extracellular domain NPR‐C", "type": "binding", "settings": "SPR, experimentally observed R max as percentage of theoretical R max (quality control), each table line a separate run"}, "[3]": {"target": "T3, FL NPR‐C (Homo sapiens, UniProt P17342)", "T3 construct": "Human full‐length (FL) NPR‐C (27–541)‐10His‐Flag; 10His (C); Flag (C); purchased Peak Proteins, UK", "T3 sequence (P17342 27-541)": "T1 sequence (P17342 27-541)", "assay": "Thermal shift assay (Protein Thermal Shift Dye Kit)", "type": "binding", "settings": "for ΔTm: FL NPR‐C 0.1 mg/ml, 1× dye, ramp 25–99°C, T m mean across four replicates", "experimental": "Thermal shift assays were performed using Thermo Fisher Scientific Protein Thermal Shift™ Dye Kit, and samples were prepared according to the accompanying protocol.17 A solution of Protein Thermal Shift™ Dye was always prepared fresh from the 1,000× stock. Optimization experiments were performed by titrating NPR‐C protein (0.1, 0.05 and 0.01 mg/ml) and Protein Thermal Shift™ Dye concentration (80, 8 and 1×) to identify conditions that achieved melt curves with the greatest dynamic fluorescence range and least standard error in T m (melt temperature) values. […] The total volume for each reaction was 20.0 μl. Each melt reaction was mixed at least 10 times, and the plate was sealed with MicroAmp® Optical Adhesive Film. The plate was then spun it at 112 g for 1 min and placed on ice until measurement. Thermal melt reactions were performed and analysed using a 7500 Real‐Time PCR System®. A 5‐carboxy‐X‐rhodamine (ROX) reporter and a continuous temperature ramp of 25–99°C were used (2 min per step). Optical filters were set at 580 nm (excitation) and 623 nm (emission). The T m for each sample was obtained by differentiating the original fluorescence melt curve using OriginPro mathematical and peak identification functions. The reported T m values are the mean across four replicates."}, "[4]": {"target": "NPR‐C", "settings": "literature value in Table 2; read-out: K i, literature; cited from earlier work", "source_text": "Table 2 Summary of control peptide FP analyses | column: K i (competitive; nM)"}, "[5]": {"target": "T4, Human full-length (FL) NPR-C (27–541)-10His-Flag (human, UniProt P17342-2 27-540)", "T4 construct": "natriuretic peptide receptor C (NPR-C), human, residues 27-541; Primarily a disulphide-bonded dimer (~130 kDa) on non-reducing SDS-PAGE; The tag's end is read from the construct's name (27–541)-10His-Flag; also called natriuretic peptide receptor C; natriuretic peptide receptor type-C; source: expressed and isolated at Peak Proteins, UK; not shown: 10His, C-terminal, kept; Flag, C-terminal, kept", "T4 sequence (looked up)": "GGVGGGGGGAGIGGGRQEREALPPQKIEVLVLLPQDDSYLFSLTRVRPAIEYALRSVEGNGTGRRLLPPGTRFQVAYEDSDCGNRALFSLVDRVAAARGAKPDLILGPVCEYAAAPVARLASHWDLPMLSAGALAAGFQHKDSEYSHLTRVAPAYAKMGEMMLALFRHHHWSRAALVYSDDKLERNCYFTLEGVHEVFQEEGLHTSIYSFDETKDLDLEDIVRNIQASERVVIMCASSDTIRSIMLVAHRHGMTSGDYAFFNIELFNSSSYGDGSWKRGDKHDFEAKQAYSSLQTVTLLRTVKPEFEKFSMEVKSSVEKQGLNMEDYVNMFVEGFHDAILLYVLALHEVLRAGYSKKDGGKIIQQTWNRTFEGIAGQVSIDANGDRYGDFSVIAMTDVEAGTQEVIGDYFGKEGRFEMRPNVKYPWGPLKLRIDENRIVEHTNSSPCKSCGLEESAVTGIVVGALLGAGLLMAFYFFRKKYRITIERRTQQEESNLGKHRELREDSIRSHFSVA", "assay": "thermal shift; Protein Thermal Shift Dye Kit; FL NPR-C 0.1 mg/ml, 1x dye; ligand at 1:1 or 10:1 ratio to the protein; ramp 25-99°C; Tm mean of four replicates", "settings": "both partners purified"}, "[6]": {"target": "T4, Human full-length (FL) NPR-C …", "assay": "fluorescence polarisation; competition against 15 nM Flu-P19 probe; FL NPR-C 150 nM or ECD NPR-C 400 nM; competitor 4.89 nM-2.5 uM; HEPES buffer, 3% DMSO; Ki computed from IC50 with a web-based converter", "settings": "both partners purified"}, "[7]": {"target": "T4, Human full-length (FL) NPR-C …", "assay": "fluorescence polarisation; competition against 15 nM Flu-P19 probe; FL NPR-C 150 nM or ECD NPR-C 400 nM; competitor 4.89 nM-2.5 uM; HEPES buffer, 3% DMSO; Ki computed from IC50 with a web-based converter", "settings": "both partners purified", "remark": "listed apart in the source"}, "[8]": {"target": "T5, extracellular domain (ECD) NPR-C (27–481)-6His (human, UniProt P17342-2 27-481)", "T5 construct": "natriuretic peptide receptor C (NPR-C), human, extracellular domain, residues 27-481; Mainly monomer (~55 kDa) on non-reducing SDS-PAGE; the discussion says ~25% of the molecules are disulphide-bonded; The tag's end is read from the construct's name; also called (27–481)-6His (ECD); extracellular NPR-C; source: expressed and isolated at Peak Proteins, UK; not shown: 6His, C-terminal, kept", "T5 sequence (looked up)": "T2 sequence (P17342 27-481) with S450C, G452L, L453E, E455S", "assay": "fluorescence polarisation; competition against 15 nM Flu-P19 probe; FL NPR-C 150 nM or ECD NPR-C 400 nM; competitor 4.89 nM-2.5 uM; HEPES buffer, 3% DMSO; Ki computed from IC50 with a web-based converter", "settings": "both partners purified"}, "[9]": {"target": "T4, Human full-length (FL) NPR-C …", "assay": "SPR; steady-state affinity analysis of Flu-P19 on immobilised FL NPR-C", "settings": "both partners purified"}}, "note": "Positions count from the first letter of the chain named. Values joined by “and” are separate entries in the source; they are usually repeats but may differ in a detail not shown here. Equal entries are not always repeated. Bridge positions count the residues as written; N and C are the ends. Ends that are not written are not given here. * marks the point of attachment. 5FAM = O=C1OC2(c3ccc(O)cc3Oc3cc(O)ccc32)c2ccc(C(=O)*)cc21", "data": [{"molecule": "C‐type natriuretic peptide [CNP]", "values": [{"measurement": "% theoretical R max", "setting": "[1]", "value": 31, "unit": "%"}, {"measurement": "% theoretical R max", "setting": "[2]", "value": 51, "unit": "%"}, {"measurement": "ΔTm, approximate shift given in text", "setting": "[3]; FL NPR‐C, ratio not stated in the sentence (Figure 9c,d)", "value": "~ 11 °C"}, {"measurement": "ΔTm", "setting": "[3]; NPRC + ligand (1:1)", "value": "+8.2 °C"}, {"measurement": "ΔTm", "setting": "[3]; NPRC + ligand (1:10)", "value": "+11.7 °C"}, {"measurement": "Ki", "setting": "[4]", "value": 0.023, "unit": "nM"}]}, {"molecule": "B1", "values": [{"measurement": "ΔTm", "setting": "[5]", "value": "~11", "unit": "°C"}, {"measurement": "IC50", "setting": "[6]", "value": 142, "unit": "nM"}, {"measurement": "Ki", "setting": "[6]", "value": 0.49, "unit": "nM"}, {"measurement": "IC50", "setting": "[7]", "value": "68.4 nM and 142 nM and 111 nM"}, {"measurement": "Ki", "setting": "[7]", "value": 0.1, "unit": "nM"}, {"measurement": "Ki", "setting": "[8]", "value": 0.1, "unit": "nM"}]}, {"molecule": "B2", "values": [{"measurement": "Kd", "setting": "[9]", "value": "~10", "unit": "nM"}]}]}
